Experimental data: patent US20020055615A1
Ends that are not written are not given here.

Assays:
[1] = biological target: AM receptor (AM-R) on human tumor cell lines (human); experiment: cell-based or functional assay
[2] = biological target: AM receptor (AM-R) on human tumor cell lines (human); experiment: receptor binding on MCF-7 cells
[3] = biological target: AM receptor (AM-R) on human tumor cell lines (human); experiment: displacement of 125I-AM from MCF-7 cells by unlabelled AM
[4] = biological target: AM receptor (AM-R) on human tumor cell lines (human); experiment: 125I-AM (0.2 nM per 5×10^5 cells) binding to NCI-H1264 cells

increase in cellular cAMP (ED50) [1]: 5 nM | maximum elevation of cellular cAMP (fold of control) [1]: 3 | Kd [2]: 2 nM | IC50 [3]: 10 nM | radioactivity bound (cpm) [4]: 2260 cpm
B1: adrenomedullin (AM) (peptide, UniProt P35318 95-146, looked up)
peptide: YRQSMNNFQGLRSFGCRFGTCTVQKLAHQIYQFTDKDKDNVAPRSKISPQGY-NH2
modifications: ends and bridges not checked; also: 125I-labelled as tracer in receptor assays
